We go through one molecule from paper PMC9168836, “Clamping of DNA shuts the condensin neck gate” (Proceedings of the National Academy of Sciences of the …, 2021).

One assay has as its target T1, Smc2 (budding yeast (S. cerevisiae), UniProt P38989 1-1170).
T1 construct: Smc2, SMC subunit of budding yeast (S. cerevisiae) condensin; only the head domain and proximal coiled coil (neck) are resolved in the maps; Subunit of the wild-type condensin tetramer and pentamer used for cryo-EM
T1 sequence: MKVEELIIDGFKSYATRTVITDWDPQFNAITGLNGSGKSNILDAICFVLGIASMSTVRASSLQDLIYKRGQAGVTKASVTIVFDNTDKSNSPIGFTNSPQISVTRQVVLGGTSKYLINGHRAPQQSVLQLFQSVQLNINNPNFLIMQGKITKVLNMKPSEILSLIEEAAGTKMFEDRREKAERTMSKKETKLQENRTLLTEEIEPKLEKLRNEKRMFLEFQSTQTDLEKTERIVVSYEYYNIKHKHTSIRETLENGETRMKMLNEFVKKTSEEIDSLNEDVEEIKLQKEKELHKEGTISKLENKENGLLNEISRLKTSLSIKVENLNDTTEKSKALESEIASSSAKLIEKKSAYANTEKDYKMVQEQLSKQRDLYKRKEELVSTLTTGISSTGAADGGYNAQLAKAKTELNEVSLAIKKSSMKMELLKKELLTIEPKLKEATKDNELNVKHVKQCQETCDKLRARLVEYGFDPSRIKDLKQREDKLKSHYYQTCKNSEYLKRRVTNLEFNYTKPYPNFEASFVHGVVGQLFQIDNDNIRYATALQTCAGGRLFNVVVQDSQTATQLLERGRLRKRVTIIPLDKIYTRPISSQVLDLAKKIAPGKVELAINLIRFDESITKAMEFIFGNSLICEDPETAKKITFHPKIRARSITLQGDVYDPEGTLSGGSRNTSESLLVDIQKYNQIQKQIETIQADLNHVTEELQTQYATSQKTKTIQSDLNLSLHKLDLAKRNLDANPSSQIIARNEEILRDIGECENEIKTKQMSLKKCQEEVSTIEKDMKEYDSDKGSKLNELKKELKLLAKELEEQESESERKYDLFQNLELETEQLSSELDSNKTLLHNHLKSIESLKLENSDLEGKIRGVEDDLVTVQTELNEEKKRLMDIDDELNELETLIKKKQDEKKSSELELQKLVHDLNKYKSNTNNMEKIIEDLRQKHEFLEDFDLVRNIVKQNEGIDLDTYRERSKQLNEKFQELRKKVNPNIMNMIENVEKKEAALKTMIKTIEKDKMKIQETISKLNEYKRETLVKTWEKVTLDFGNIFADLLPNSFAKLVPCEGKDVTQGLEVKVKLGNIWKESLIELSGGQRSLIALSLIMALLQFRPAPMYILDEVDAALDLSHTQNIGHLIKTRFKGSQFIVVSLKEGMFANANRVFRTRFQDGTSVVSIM
Kind of assay: cryo-EM structure; condensin pentamer with 100 nM relaxed circular DNA (1,789 bp), 5 mM ADP, 1 mM BeSO4, 10 mM NaF in TNT buffer pH 7.5; VPP and non-VPP images; low-resolution maps of the head module and of Ycg1-DNA. Particulars: both partners purified.

The target of another assay is T2, Ycs4 (S. cerevisiae, UniProt Q06156 1-1176).
T2 construct: Ycs4, HAWK (HEAT repeat) subunit of S. cerevisiae condensin
T2 sequence: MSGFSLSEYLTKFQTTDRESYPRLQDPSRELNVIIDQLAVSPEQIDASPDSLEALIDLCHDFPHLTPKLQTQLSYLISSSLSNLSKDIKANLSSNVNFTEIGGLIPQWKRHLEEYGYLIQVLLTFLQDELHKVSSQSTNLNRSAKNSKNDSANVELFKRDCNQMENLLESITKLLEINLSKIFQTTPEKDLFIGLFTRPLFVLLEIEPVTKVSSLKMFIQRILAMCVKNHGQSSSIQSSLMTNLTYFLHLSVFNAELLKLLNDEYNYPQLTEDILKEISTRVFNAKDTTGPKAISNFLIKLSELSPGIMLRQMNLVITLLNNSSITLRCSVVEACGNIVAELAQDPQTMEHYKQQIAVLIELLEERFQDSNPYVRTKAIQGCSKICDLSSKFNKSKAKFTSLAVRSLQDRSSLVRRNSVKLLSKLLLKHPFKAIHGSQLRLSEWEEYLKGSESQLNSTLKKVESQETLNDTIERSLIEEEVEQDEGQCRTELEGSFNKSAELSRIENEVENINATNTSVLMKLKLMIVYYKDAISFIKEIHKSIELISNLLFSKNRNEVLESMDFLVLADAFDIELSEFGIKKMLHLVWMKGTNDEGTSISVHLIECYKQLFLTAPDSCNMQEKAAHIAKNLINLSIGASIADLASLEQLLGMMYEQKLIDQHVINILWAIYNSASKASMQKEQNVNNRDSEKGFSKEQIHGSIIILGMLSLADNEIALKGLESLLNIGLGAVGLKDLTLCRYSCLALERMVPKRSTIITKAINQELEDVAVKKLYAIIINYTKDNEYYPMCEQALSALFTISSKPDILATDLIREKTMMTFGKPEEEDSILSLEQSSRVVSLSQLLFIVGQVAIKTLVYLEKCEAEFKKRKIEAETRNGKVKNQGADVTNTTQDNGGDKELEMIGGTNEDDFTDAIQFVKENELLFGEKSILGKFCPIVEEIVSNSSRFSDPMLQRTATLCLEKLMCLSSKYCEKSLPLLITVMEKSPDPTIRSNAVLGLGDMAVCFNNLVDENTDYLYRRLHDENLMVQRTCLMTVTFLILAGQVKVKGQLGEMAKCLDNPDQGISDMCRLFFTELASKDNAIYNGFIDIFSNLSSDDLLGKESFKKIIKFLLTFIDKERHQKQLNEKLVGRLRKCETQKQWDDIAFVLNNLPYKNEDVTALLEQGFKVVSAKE
Described as above. To be noted: both partners purified.

B1: Brn1-HA3-His12 (natural protein, budding yeast (S. cerevisiae), UniProt P38170 1-754, looked up)
chain: MTTQLRYENNDDDERVEYNLFTNRSTMMANFEEWIKMATDNKINSRNSWNFALIDYFYDLDVLKDGENNINFQKASATLDGCIKIYSSRVDSVTTETGKLLSGLAQRKTNGASNGDDSNGGNGEGLGGDSDEANIEIDPLTGMPISNDPDVNNTRRRVYNRVLETTLVEFETIKMKELDQELIIDPLFKKALVDFDEGGAKSLLLNTLNIDNTARVIFDASIKDTQNVGQGKLQRKEEELIERDSLVDDENEPSQSLISTRNDSTVNDSVISAPSMEDEILSLGMDFIKFDQIAVCEISGSIEQLRNVVEDINQAKDFIENVNNRFDNFLTEEELQAAVPDNAEDDSDGFDMGMQQELCYPDENHDNTSHDEQDDDNVNSTTGSIFEKDLMAYFDENLNRNWRGREHWKVRNFKKANLVNKESDLLEETRTTIGDTTDKNTTDDKSMDTKKKHKQKKVLEIDFFKTDDSFEDKVFASKGRTKIDMPIKNRKNDTHYLLPDDFHFSTDRITRLFIKPGQKMSLFSHRKHTRGDVSSGLFEKSTVSANHSNNDIPTIADEHFWADNYERKEQEEKEKEQSKEVGDVVGGALDNPFEDDMDGVDFNQAFEGTDDNEEASVKLDLQDDEDHKFPIRENKVTYSRVSKKVDVRRLKKNVWRSINNLIQEHDSRKNREQSSNDSETHTEDESTKELKFSDIIQGISKMYSDDTLKDISTSFCFICLLHLANEHGLQITHTENYNDLIVNYEDLATTQAAS
notes: Brn1, kleisin subunit of budding yeast (S. cerevisiae) condensin; 754 residues as printed (279/754 traced in the head module map); The tags' end is read from the plasmid's name BRN1-HA3-His12; also called kleisin Brn1
Turning to B1, the binding result with Smc2 and with Ycs4 was “binds” each time.
